Assay: label from the status in PepcDB records

MGSGKERDTFVYLAKLSEQAERYEEMVESMKSVAKLNVDLTVEERNLLSVGYKNVIGSRRASWRIFSSIEQKEAVKGNDVNVKRIKEYMEKVELELSNICIDIMSVLDEHLIPSASEGESTVFFNKMKGDYYRYLAEFKSGNERKEAADQSLKAYEIATTAAEAKLPPTHPIRLGLALNFSVFYYEIMNAPERACHLAKQAFDEAISELDTLNEESYKDSTLIMQLLRDNLTLWTSDISEEGGDDAHKTNGSAKPGAGGDDAE
protein production: failed

MGSGSMLQSWNLKTSKRTGSFDAKSSINAVAISPDGNTLATGIRDNAIKLWNINDGKLIHTLTGHQGQVRTVAFSPDGTLLASGSSDGTVKLWNATTGKEINTFTAHKEQVWSVAFNPDGKTLASTGQDGSVKIWGVSPQLEHHHHHH
protein production: not failed

MGSLERSKKKAQVWKKAVIHFSLCFVMGFFTGFAPAGKASFFSNFETTSYTSTKSPIPPQPFENATYTQHSLLNRTLINSQSQAPAPAESREAEGETRSLSEKEDENQVKVTPRGLVIVVTPIITKDRYKNVLLRRMANTLRLVPPPLLWIVVEKHSDGEEKSSSTMLRKTGIMYRRIVFKEDFTSLESELDHQRNLALRHIEHHKLSGIVHFAGLNNIYDLDFFVKIRDIEVFGTWPMALLSANRKRVVVEGPVCESSQVLGWHLRKINNETETKPPIHISSFAFNSSILWDPERWGRPSSVEGTKQDSIKYVKQVVLEDDTKLKGLPAQDCSKIMLWRLKFPTRTRLST
protein production: failed

MGSLYTSELSRAVSESVAAALQRSFQGELRSASALGSGWSTSAELLNRNDSTERYFVKLSEPQAVSMFSAEFEGIQAMAESETVRVPAPICYGNTAERSFIVLEYLELGGIGNEAVYRDFGEKLAAMHRCSSGGRGYGWHRGNTIGSTPQLNTWMHSWADFFVENRLRYQLKLARSRQGGRLRNEDALLQRVHSVLQEHEIQHQVTPSLVHGDLWTGNVATLRNQNEVVIFDPATYYGDREVDLAMTELFGRLPRAFYQAYDASWPLPKGYREKRRVIYNLYHILNHGALFGGGYYDQAQSMIETILR
protein production: not failed

MGSMDQSIAVKSPLTYAEALANTIMNTYTVEELPPANRWHYHQGVFLCGVLRLWEATGEKRYFEYAKAYADLLIDDNGNLLFRRDELDAIQAGLILFPLYEQTKDERYVKAAKRLRSLYGTLNRTSEGGFWHKDGYPYQMWLDGLYMGGPFALKYANLKQETELFDQVVLQESLMRKHTKDAKTGLFYHAWDEAKKMPWANEETGCSPEFWARSIGWYVMSLADMIEELPKKHPNRHVWKNTLQDMIKSICRYQDKETGLWYQIVDKGDRSDNWLESSGSCLYMYAIAKGINKGYLDRAYETTLLKAYQGLIQHKTETSEDGAFLVKDICVGTSAGFYDYYVSRERSTNDLHGAGAFILAMTELEPLFRSAGK
protein production: not failed

MGSSHHHHHHSSGENLYFQGHMIYPYKGKTPQIAASAFIADYVTITGDVVIGEETSIWFNTVIRGDVAPTVIGNRVNIQDNSILHQSPNNPLIIEDGVTVGHQVILHSAIVRKNALIGMGSIILDRAEIGEGAFIGAGSLVPPGKKIPPNTLALGRPAKVVRELTEDDIREMERIRREYVEKGQYYKALQQQRTSCADKKELP
protein production: not failed

MGSSHHHHHHSSGLVPRGSHRSEFSSRSGYGEYVQQTLQPGMRVRMLDDYEEISAGDEGEFRQSNNGIPPVQVFWQSTGRTYWVHWHMLEILGPEEATEDKASAAVEKGAGATVLGTAFPS
protein production: not failed

MGSSHHHHHHSSGRENLYFQGMAATAREDGASGQERGQRGCEHYDRGCLLKAPCCDKLYTCRLCHDNNEDHQLDRFKVKEVQCINCEKIQHAQQTCEECSTLFGEYYCDICHLFDKDKKQYHCENCGICRIGPKEDFFHCLKCNLCLAMNLQGRHKCIENVSRQNCPICLEDIHTSRVVAHVLPCGHLLHRTCYEEMLKEGYRCPLCMHSALDMTRYWRQLDDEVAQTPMPSEYQNMTVDILCNDCNGRSTVQFHILGMKCKICESYNTAQAGGRRISLDQQ
protein production: failed

MGSSHHHHHHSSGRENLYFQGMRLKSEMFVSALIRRVFAAGGFAAVEKKGAEAAGAIFVRQRLRDGRENLYGPAPQSFADDEDIMRAERRFETRLAGVEGEEIAALLERERRFDSDLWVVEIETDEIGTLLTLVDQPQA
protein production: not failed

MGSSLPFDLILEILQRTPAESLLRFKSTCKKWYELISNDKRFMYKHLDKSTKRFLRIENRERVQILDPVTEILAVSTIPNELRHKYFTLIHCDGLMLGMCYEELGSDPNLAVWNPVMRKIKWIKPSPPLVCYWGSDYLGFGYDKTFRDNYKILRFTYLGDDDDDESYPKCQIYEFNSGSWRSIEAKFDGEIDVEVDGVSVNGSMYWIELQEKKNFILSFDFSKETFNRICDSPLYWDIKRLGCFNGDRLSLLQQNEATREIHVSVTNKLSDEVVSFSRYFSVTLPDIPLFRSIDILPLPGCFIGKNRNIIAWCEQLVGKYDDHTSIILYEIGEGGVTKRIRTGRHEADEDYNDLDNCSYVYVPSLIPVPE
protein production: failed

MGTDTAQARPTDEAAERRREQRGWYFYDWACSVYSTSVLTVFLGPYLTSVAKSAADADGYVHPLGVPVRAGSFFAYSVSLSVIVAVVVMPLVGAAADRTGRKKPLLAVTAYVGAAATAGMFFLDGDRYLLGGVLLLVANAAQAVSMMLYNSYLPQIAPPEERDAVSSRGWAFGYAAGALVLIANLVLFLAHDSFGVSESTAVRICLASAGLWWGAFTLIPLKRLRDRGSPVKEITAPGPRRLAATVRDMRRHPLTLSFLLAYLIYNDGIQTVISQASVYGSEELGLSQSTLIVAVLLVQVLAVGGALGMGRLARTYGARRTILGSLVAWTVTLGAGYFLPAGAPFWFFVLASGIGLVLGGSQALSRSLFSHLVPAGKEAEYFSAYEMSDRGMSWLGPLLFGLTYQLTGSYRDAIISLVAFFVVGFVLLARVPVRQAVRDAGNSVPERI
protein production: failed

MGTEATEQVSWGHYSGDEEDAYSAEPLPELCYKADVQAFSRAFQPSVSLTVAALGLAGNGLVLATHLAARRAARSPTSAHLLQLALADLLLALTLPFAAAGALQGWSLGSATCRTISGLYSASFHAGFLFLACISADRYVAIARALPAGPRPSTPGRAHLVSVIVWLLSLLLALPALLFSQDGQREGQRRCRLIFPEGLTQTVKGASAVAQVALGFALPLGVMVACYALLGRTLLAARGPERRRALRVVVALVAAFVVLQLPYSLALLLDTADLLAARERSCPASKRKDVALLVTSGLALARCGLNPVLYAFLGLRFRQDLRRLLRGGSCPSGPQPRRGCPRRPRLSSCSAPTETHSLSWDN
protein production: failed

MGTETVVHDQARWAMAAMERRLAVAKAQLLQQQQQKNEKDKKGTSDVDVSMKESHQADSLPTPSKTSIKKVDPKDDDSVAYTKLSHPVDENLLATNVKFSSAKGTIVDKVLHNLLRSGDSAQKYLQGTKSVKLDNYILLDNFVQSRSSASGSKKASQKDSKRSKSRMSMKRLKKSGALHIPKDLQKFDLFKPMHGMWESYMMKLIKVTGKIQLSLTLLSADLHGAFMFGNPSFFHKSVVLGYDLLSLTHFPKLNFSQPILLVTVAECKIASFTGVQGIMVRETSETFGIITRDDKFRGILKLFSPIYLP
protein production: failed

MGTFIEPSKVTLKDYLNHWLEIKSMSIEKSTFAGYKAFINQHVIPSIGMVTLHKLNVIHIQKCYKTAIDKGIANNSILLMHRILKSALNLAVKQNIISRNPADFAEIPLEHHHHHH
protein production: failed

MGTKERILEVSKELFFEKGYQGTSVEEIVKRANLSKGAFYFHFKSKEELITEIIERTHKKIISLFEENKEKTPEELLEMFLEVLYREKKVVYIFLFDLLCSEKFRNIYFEKIEDAKRRFEKFLEKHFPSKAEILSEIILGFLRQLILHYVIKEERELPFLKEKLREGLKLIFEGVKKCG
protein production: not failed

MGTTGFTIIDLIILIVYLLAVLVAGIYFSKKEMKGKEFFKGDGSVPWYVTSVSIFATMLSPISFLGLAGSSYAGSWILWFAQLGMVVAIPLTIRFILPIFARIDIDTAYDYLDKRFNSKALRIISALLFIIYQLGRMSIIMYLPSAGLSVLTGIDINILIILMGVVAIVYSYTGGLKSVLWTDFIQGVILISGVVLALFVLIANIKGGFGAVAETLANGKFLAANEKLFDPNLLSNSIFLIVMGSGFTILSSYASSQDLVQRFTTTQNIKKLNKMLFTNGVLSLATATVFYLIGTGLYVFYQVQNADSAASNIPQDQIFMYFIAYQLPVGITGLILAAIYAASQSTISTGLNSVATSWTLDIQDVISKNMSDNRRTKIAQFVSLAVGLFSIGVSIVMAHSDIKSAYEWFNSFMGLVLGLLGGVFILGFVSKKANKQGAYAALIVSTIVMVFIKYFLPPTAVSYWAYSLISISVSVVSGYIVSVLTGNKVSAPKYTTIHDITEIKADSSWEVRH
protein production: failed

— a protein production outcome set (Wang et al. 2014)
